# Experimental data taken from PMC6826779, “Bis-allylic Deuterated DHA Alleviates Oxidative Stress in Retinal Epithelial Cells” (Antioxidants, 2019).
# B1: 15-sLOX (Glycine max) (protein)
# chain: MFSAGHKIKGTVVLMPKNELEVNPDGSAVDNLNAFLGRSVSLQLISATKADAHGKGKVGKDTFLEGINTSLPTLGAGESAFNIHFEWDGSMGIPGAFYIKNYMQVEFFLKSLTLEAISNQGTIRFVCNSWVYNTKLYKSVRIFFANHTYVPSETPAPLVSYREEELKSLRGNGTGERKEYDRIYDYDVYNDLGNPDKSEKLARPVLGGSSTFPYPRRGRTGRGPTVTDPNTEKQGEVFYVPRDENLGHLKSKDALEIGTKSLSQIVQPAFESAFDLKSTPIEFHSFQDVHDLYEGGIKLPRDVISTIIPLPVIKELYRTDGQHILKFPQPHVVQVSQSAWMTDEEFAREMIAGVNPCVIRGLEEFPPKSNLDPAIYGDQSSKITADSLDLDGYTMDEALGSRRLFMLDYHDIFMPYVRQINQLNSAKTYATRTILFLREDGTLKPVAIELSLPHSAGDLSAAVSQVVLPAKEGVESTIWLLAKAYVIVNDSCYHQLMSHWLNTHAAMEPFVIATHRHLSVLHPIYKLLTPHYRNNMNINALARQSLINANGIIETTFLPSKYSVEMSSAVYKNWVFTDQALPADLIKRGVAIKDPSTPHGVRLLIEDYPYAADGLEIWAAIKTWVQEYVPLYYARDDDVKNDSELQHWWKEAVEKGHGDLKDKPWWPKLQTLEDLVEVCLIIIWIASALHAAVNFGQYPYGGLIMNRPTASRRLLPEKGTPEYEEMINNHEKAYLRTITSKLPTLISLSVIEILSTHASDEVYLGQRDNPHWTSDSKALQAFQKFGNKLKEIEEKLVRRNNDPSLQGNRLGPVQLPYTLLYPSSEEGLTFRGIPNSISI
# What was measured:
# [1] = substrate: CC/C=C\C/C=C\C/C=C\C/C=C\C/C=C\C/C=C\CCC(=O)O; assay: Kinetics parameters of 15s-LOX (UV 270 nm, Michaelis-Menten); format: biochemical, Glycine max (soybean); conditions: other: 15s-LOX, substrate 0.02-0.2 mM, borate buffer pH 9, 20 °C
# Experimental: (§1) The activity of 15-sLOX was monitored on a Beckman Coulter DU730 Life Sciences UV-visible spectrometer at a wavelength of 270 nm monitoring the conjugated triene structure in the dihydroxylation products. For the measurements a reaction mixture of DHA or deuterated DHA (0.02 mM; 0.04 mM; 0.1 mM and 0.2 mM) was prepared in 750 µL sodium borate buffer (50 mM, pH 9) by ultrasonification for 10 s. The reaction was subsequently initiated by the addition of 10 µL 15-sLOX (4 mg/mL) to make a total volume of 760 µL in a Hellma CEL2056 quartz cuvette with 1 cm path length (20 °C). The initial reaction rates (V(0)), derived from the recorded UV-absorbance using the law of Lambert-Beer (molar extinction coefficient = 40,000), were plotted against the respective DHA concentrations and fitted to Michaelis-Menten kinetics in GraphPad Prism 7.0. All V(0) values were determined in triplicate and the average of three independent experiments was plotted against the substrate concentrations to yield Michaelis-Menten kinetics.
# [2] = substrate: CCC=CCC=CCC=CCC=CCC=CCC=CCCC(=O)O; assay: as above; format: biochemical, Glycine max (soybean); conditions: other: 15s-LOX, substrate 0.02-0.2 mM, borate buffer pH 9, 20 °C
# Experimental: as §1
protein,measurement,setting,value
B1,Km,[1]; substrate D2-DHA,36.3 µM
same,Km,[1]; substrate Natural DHA,68 µM
same,Km,[2],57.4 µM
